{"source": "paper PMC10942789", "about": "“Biomolecular condensates can both accelerate and suppress aggregation of α-synuclein” (Science Advances, 2022)", "biological_target": "the molecule itself", "experiment": "thioflavin T aggregation kinetics + transmission electron microscopy of fibrils; self-association into amyloid fibrils; 40 uM FL-αSyn or αSyn-108, or 160 uM NACore; 50 mM Hepes (pH 7.4), 100 mM NaCl, 100 uM EDTA, 20 uM ThT, 37°C, continuous linear shaking; without coacervates (reference), with supernatant or with coacervate droplets"}
{"protein": "GAVVTGVTAVA (alpha-synuclein residues 68-78, from the non-amyloid-β component; source: synthetic peptide; bought: CASLO ApS (Denmark))", "note": "[NACore peptide (αSyn-68-78)]", "values": [{"measurement": "binding result", "value": "binds"}]}
